Laboratory results published in patent US10206975 (dated 2019).

Legend:
human complement C5 [1] = target: human complement C5 (human); test: competition, ECL
human complement C5 [2] = target: human complement C5 (human); test: SPR, with human albumin
human complement C5 [3] = target: human complement C5 (human); test: SPR, without albumin
human serum albumin [4] = target: T1, human serum albumin (human, UniProt P02768); test: SPR
human complement C5 [5] = target: human complement C5 (human); test: SPR
human complement C3 = human complement C3 (human, UniProt P01024); test: SPR, 40 and 400 nM
human complement C4 = target: T2, human complement C4 (human); test: SPR, 40 and 400 nM
T2 chain 1: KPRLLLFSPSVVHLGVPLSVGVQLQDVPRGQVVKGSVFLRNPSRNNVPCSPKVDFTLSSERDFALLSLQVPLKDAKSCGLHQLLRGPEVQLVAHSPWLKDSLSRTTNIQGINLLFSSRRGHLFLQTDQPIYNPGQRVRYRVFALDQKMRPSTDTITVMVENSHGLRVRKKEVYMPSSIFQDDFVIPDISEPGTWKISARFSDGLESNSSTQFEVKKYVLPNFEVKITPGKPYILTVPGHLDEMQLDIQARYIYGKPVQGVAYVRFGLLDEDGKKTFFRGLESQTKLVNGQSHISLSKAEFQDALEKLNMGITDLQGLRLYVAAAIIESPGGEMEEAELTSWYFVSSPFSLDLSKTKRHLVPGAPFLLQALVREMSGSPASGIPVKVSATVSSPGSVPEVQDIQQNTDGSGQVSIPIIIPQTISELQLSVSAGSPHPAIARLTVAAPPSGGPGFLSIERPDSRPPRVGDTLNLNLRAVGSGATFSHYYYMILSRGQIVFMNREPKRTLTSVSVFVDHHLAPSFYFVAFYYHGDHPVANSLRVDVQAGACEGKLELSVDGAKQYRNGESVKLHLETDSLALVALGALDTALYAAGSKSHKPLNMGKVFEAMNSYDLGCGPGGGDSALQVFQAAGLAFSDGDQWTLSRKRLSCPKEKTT
T2 chain 2: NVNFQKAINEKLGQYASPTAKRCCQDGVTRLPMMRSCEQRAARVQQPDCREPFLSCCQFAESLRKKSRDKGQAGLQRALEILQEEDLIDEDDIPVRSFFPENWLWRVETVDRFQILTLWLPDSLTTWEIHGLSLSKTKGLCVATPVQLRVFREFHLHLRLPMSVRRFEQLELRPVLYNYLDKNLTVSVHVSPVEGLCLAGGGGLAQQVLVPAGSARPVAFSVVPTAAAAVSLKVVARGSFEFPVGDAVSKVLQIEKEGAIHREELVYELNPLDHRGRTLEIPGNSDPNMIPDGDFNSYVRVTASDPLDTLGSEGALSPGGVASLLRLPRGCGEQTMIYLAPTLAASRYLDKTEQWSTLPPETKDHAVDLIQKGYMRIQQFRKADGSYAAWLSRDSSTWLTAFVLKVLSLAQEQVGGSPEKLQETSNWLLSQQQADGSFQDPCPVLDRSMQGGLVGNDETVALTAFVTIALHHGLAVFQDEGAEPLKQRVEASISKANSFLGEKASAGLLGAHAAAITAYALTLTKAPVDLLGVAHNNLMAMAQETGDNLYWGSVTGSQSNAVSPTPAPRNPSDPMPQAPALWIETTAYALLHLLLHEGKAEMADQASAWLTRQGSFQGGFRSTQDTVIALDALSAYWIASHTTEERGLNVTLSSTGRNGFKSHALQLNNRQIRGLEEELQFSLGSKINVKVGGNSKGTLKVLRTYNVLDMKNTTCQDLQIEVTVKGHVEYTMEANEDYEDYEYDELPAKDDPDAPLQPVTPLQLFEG
T2 chain 3: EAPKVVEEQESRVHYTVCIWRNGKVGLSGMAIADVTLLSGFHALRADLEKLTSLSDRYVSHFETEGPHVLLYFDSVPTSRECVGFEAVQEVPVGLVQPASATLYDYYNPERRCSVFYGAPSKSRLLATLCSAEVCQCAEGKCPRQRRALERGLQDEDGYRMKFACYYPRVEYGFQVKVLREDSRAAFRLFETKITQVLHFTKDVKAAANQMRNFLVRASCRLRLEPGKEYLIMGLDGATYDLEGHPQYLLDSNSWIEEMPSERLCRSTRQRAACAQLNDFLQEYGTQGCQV

human complement C5 [6] = target: human complement C5 (human); test: other, ECL saturation binding
human serum albumin [7] = target: T1, human serum albumin; test: SPR, 25C
mouse serum albumin = mouse serum albumin (mouse, UniProt P07724); test: SPR
Sequence of mouse serum albumin (P07724 25-608): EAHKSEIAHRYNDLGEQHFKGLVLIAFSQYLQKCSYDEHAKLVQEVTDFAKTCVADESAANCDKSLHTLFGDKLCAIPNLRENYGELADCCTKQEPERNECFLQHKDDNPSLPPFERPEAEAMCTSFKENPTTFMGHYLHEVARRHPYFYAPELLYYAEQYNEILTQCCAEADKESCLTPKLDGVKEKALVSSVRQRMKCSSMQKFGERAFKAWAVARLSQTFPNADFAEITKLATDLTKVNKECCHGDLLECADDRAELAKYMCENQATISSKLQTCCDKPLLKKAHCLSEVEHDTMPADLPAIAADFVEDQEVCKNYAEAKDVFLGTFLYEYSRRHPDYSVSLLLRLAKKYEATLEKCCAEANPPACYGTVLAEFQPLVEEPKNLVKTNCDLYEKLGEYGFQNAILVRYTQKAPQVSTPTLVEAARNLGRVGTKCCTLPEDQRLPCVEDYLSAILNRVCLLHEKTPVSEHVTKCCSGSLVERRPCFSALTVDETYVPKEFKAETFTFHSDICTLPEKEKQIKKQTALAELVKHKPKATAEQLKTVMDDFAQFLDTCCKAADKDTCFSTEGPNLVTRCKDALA

rat serum albumin = target: T3, rat serum albumin (rat, UniProt P02770); test: SPR
T3 chain: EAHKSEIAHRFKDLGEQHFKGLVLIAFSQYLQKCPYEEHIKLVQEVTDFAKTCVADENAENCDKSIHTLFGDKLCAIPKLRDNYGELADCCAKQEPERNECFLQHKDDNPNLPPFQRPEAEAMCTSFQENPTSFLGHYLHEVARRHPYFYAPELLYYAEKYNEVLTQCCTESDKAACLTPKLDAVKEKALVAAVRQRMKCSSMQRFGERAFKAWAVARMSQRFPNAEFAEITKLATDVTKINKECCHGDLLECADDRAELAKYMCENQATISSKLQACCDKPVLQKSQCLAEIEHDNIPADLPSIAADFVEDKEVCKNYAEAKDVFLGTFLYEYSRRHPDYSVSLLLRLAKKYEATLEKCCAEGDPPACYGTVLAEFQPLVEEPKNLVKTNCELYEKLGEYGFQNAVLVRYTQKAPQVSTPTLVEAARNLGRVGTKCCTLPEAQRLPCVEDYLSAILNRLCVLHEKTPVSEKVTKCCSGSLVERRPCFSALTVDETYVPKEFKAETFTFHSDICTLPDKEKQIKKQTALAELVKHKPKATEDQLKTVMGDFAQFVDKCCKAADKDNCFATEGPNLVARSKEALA

bovine serum albumin = bovine serum albumin (bovine, UniProt P02769); test: SPR
Sequence of bovine serum albumin (P02769 25-607): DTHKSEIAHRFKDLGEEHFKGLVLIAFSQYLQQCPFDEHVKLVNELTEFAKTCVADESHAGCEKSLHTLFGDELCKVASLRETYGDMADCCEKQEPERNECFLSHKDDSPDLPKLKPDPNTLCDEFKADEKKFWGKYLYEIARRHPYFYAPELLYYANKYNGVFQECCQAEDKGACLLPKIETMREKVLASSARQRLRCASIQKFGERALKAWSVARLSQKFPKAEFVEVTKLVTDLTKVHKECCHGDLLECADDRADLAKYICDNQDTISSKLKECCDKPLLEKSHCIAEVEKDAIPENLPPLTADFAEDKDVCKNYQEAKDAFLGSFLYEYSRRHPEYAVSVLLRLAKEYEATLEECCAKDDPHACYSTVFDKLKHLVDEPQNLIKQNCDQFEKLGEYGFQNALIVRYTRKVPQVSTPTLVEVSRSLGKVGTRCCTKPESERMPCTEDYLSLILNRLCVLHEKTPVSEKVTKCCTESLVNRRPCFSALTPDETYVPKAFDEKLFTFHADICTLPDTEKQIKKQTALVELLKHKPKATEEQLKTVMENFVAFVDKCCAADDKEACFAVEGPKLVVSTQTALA

B1: OmCI (protein)
chain: MDSESDCTGSEPVDAFQAFSEGKEAYVLVRSTDPKARDCLKGEPAGEKQDNTLPVMMTFKNGTDWASTDWTFTLDGAKVTATLGNLTQNREVVYDSQSHHCHVDKVEKEVPDYEMWMLDAGGLEVEVECCRQKLEELASGRNQMYPHLKDCGGGGSENLYFQGSHHHHHH
IC50 (human complement C5 [1]): 1.5 nM

B2: Z06175a-GS-ABD094-GS(G4S)2-Z06175a (designed binder)
chain 1: not shown
chain 2: LAEAKEAANAELDSYGVSDFYKRLIDKAKTVEGVEALKDAILAALP
chain 3: not shown
Kd (human complement C5 [2]): 0.586 nM | Kd (human complement C5 [3]): 0.662 nM | Kd (human serum albumin [4]): > 1 nM

B3: Z(751)-GS-ABD094 (designed binder)
chain 1: not shown
chain 2: B2 chain 2
Kd (human complement C5 [5]): 1.87 nM

B4: Z(748)-GS-ABD094 (Z06009a) (designed binder)
chain 1: not shown
chain 2: B2 chain 2
binding result (human complement C3): no binding | binding result (human complement C4): no binding | Kd (human complement C5 [5]): 1.31 nM

B5: SULFO-TAG Z(748)-GS-ABD094 (designed binder)
chain 1: not shown
chain 2: B2 chain 2
Kd (human complement C5 [6]): 0.9 nM

B6: Z(756)-GS-ABD094 (designed binder)
chain 1: not shown
chain 2: B2 chain 2
Kd (human complement C5 [5]): 2.01 nM

B7: Z06175a-GS-ABD094 (designed binder)
chain 1: not shown
chain 2: B2 chain 2
Kd (human serum albumin [7]): < 1 nM | Kd (human complement C5 [2]): 1.43 nM | Kd (human complement C5 [3]): 1.43 nM | Kd (mouse serum albumin): ~4 nM | Kd (rat serum albumin): < 0.1 nM | binding result (bovine serum albumin): no binding | Kd (human complement C5 [5]): 1.18 nM

B8: Z(750)-GS-ABD094 (designed binder)
chain 1: not shown
chain 2: B2 chain 2
Kd (human complement C5 [5]): 1.75 nM

B9: Z06175a-Z06175a-GS-ABD094 (designed binder)
chain 1: not shown
chain 2: not shown
chain 3: B2 chain 2
Kd (human complement C5 [2]): 0.776 nM | Kd (human complement C5 [3]): 0.63 nM

B10: Z(754)-GS-ABD094 (designed binder)
chain 1: not shown
chain 2: B2 chain 2
Kd (human complement C5 [5]): 2.28 nM

B11: Z(757)-GS-ABD094 (designed binder)
chain 1: not shown
chain 2: B2 chain 2
Kd (human complement C5 [5]): 2.34 nM

B12: Z05477a-GS-ABD094 (designed binder)
chain 1: not shown
chain 2: B2 chain 2
IC50 (human complement C5 [1]): ~30 nM

B13: Z06175a-Z06175a-GS(G4S)2-ABD094 (designed binder)
chain 1: not shown
chain 2: not shown
chain 3: B2 chain 2
Kd (human complement C5 [2]): 1.13 nM | Kd (human complement C5 [3]): 1.38 nM

B14: ABD094-Z06175a (N-terminal ABD) (designed binder)
chain 1: B2 chain 2
chain 2: not shown
IC50 (human complement C5 [1]): 17 nM

B15: Z(755)-GS-ABD094 (designed binder)
chain 1: not shown
chain 2: B2 chain 2
Kd (human complement C5 [5]): 3.05 nM

B16: Z06175a-GS(G4S)2-ABD094 (designed binder)
chain 1: not shown
chain 2: B2 chain 2
Kd (human complement C5 [3]): 3.75 nM

B17: Z(752)-GS-ABD094 (designed binder)
chain 1: not shown
chain 2: B2 chain 2
Kd (human complement C5 [5]): 2.58 nM

B18: Z(749)-GS-ABD094 (designed binder)
chain 1: not shown
chain 2: B2 chain 2
Kd (human complement C5 [5]): 1.83 nM
